Assay results: US20080267948A1, “Croos-B Structure Binding Compounds” (priority 2005, published 2008)
Values belong to the molecule of their own block, whether it stands above or below them.

Tests used:
[1] = target: T1, glycated albumin (BSA-AGE) (Bos taurus, UniProt P02769); experiment: ELISA binding of recombinant human BiP to BSA-AGE, with or without tPA or K2P-tPA; parameters: species or system bovine; settings: cell culture supernatant of HEK 293E cells
T1 construct: purchased Sigma-Aldrich A-7906
Description: Proteins at 5 μg/ml were coated for 1 h at room temperature with agitation, in Microlon high-binding ELISA plates (Greiner) in 50 mM NaHCO3 pH 9.6. Buffer was coated as negative control. A twofold dilutions series of cell culture supernatant of HEK 293E cells over-expressing BiP was also coated to the plate for anti-FLAG-tag antibody control purposes. Plates were washed and blocked with ½*Blocking reagent (Roche). Undiluted cell culture supernatant enriched with 0.1% Tween20 was added to the wells with immobilized protein ligands and incubated for 1 h at room temperature with agitation. Medium was discarded and the plate was washed with PBS with 0.1% v/v Tween20. Mouse monoclonal anti-FLAG-tag antibody (Sigma, A8592, anti-FLAG M2PO conjugate) was diluted 1000× in PBS/0.1% Tween20 and added to all wells, including those that are coated with cell culture supernatant. After a 1 h incubation at room temperature with agitation and after washing, wells were overlayed with 3000× diluted RAMPO (DAKOCytomation) in PBS/0.1% Tween20. […] Absorbance was read at 450 nm.
Hb-AGE, Hb, BSA-AGE, BSA and buffer were coated. The threefold diluted cell supernatants were applied to the ELISA plate in duplicates and BiP binding was subsequently measured as described above. […]

[2] = target: T2, glycated haemoglobin (Hb-AGE) (Homo sapiens, UniProt P68871+P69905); experiment: ELISA binding of recombinant human BiP to Hb-AGE, with or without tPA or K2P-tPA; settings: cell culture supernatant of HEK 293E cells
T2 construct: purchased Sigma-Aldrich H7379
Source text: Absorbance was read at 450 nm.
The threefold diluted cell supernatants were applied to the ELISA plate in duplicates and BiP binding was subsequently measured as described above. Coat efficiency was checked with specific anti-AGE antibody, anti-albumin antibody and anti-Hb antibody.

[3] = target: T3, factor XII (Homo sapiens, UniProt P00748); experiment: ELISA binding of β2GPI to immobilized factor XII; parameters: human factor XII from plasma (Calbiochem); purchased Calbiochem; host or cells: human plasma; settings: factor XII immobilized
T3 sequence (P00748 20-615): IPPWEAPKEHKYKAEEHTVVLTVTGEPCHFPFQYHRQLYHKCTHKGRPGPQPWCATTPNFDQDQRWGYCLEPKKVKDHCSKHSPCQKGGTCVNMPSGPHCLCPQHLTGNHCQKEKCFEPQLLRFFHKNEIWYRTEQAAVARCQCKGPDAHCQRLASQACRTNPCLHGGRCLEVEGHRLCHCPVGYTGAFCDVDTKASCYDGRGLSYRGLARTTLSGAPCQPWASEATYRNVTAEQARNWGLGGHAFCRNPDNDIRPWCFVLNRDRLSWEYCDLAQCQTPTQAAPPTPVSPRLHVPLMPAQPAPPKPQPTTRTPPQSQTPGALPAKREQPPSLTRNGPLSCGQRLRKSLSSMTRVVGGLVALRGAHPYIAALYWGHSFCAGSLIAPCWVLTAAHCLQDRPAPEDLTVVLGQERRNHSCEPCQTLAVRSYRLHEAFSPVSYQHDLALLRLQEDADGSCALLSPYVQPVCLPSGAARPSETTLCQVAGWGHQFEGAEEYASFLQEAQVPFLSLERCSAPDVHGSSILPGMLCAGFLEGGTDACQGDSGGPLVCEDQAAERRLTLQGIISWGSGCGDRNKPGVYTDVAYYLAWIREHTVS
Description: (§1) Binding of β2GPI was assessed with monoclonal antibody 2B2^17.

[4] = target: T4, tPA (Homo sapiens, UniProt P00750); experiment: Plasminogen activation assay (tPA-mediated conversion of Plg to plasmin); assay type: biochemical; parameters: purchased Boehringer-Ingelheim Actilyse; settings: 100 μg ml^−1 protein or peptide, 400 pM tPA, substrate S-2251
Description: Plasmin (Plm) activity was assayed as described^4. Peptides and proteins that were tested for their stimulatory ability were used at 100 μg ml^−1, unless stated otherwise. […] Chromogenic substrate S-2251 (Chromogenix, Instrumentation Laboratory SpA, Milano, Italy) was used to measure Pls activity.
Purification of β2-glycoprotein I (β2GPI) was performed according to established methods^15,16. Recombinant human β2GPI was made using insect cells and purified as described^15. Plasma derived β2GPI as used in a factor XII ELISA, the Plg-activation assay and in the anti-phospholipid syndrome antibody ELISA (see below), was purified from fresh human plasma as described^16. […]
Solutions of fibrin peptide FP6, NH2—IDIKIR-COOH (Peptide facility, Dutch Cancer Institute, Amsterdam, the Netherlands) were prepared in various ways. […] Separate samples were prepared similarly and analyzed by electron spray ionization mass spectrometry (ESI-MS) to obtain information on the distribution of the peptide over putatively present oligomers (Dr C. Versluis, Department of Biomolecular Mass Spectrometry, Bijvoet Center for Biomolecular Research, Utrecht University, Utrecht, The Netherlands). […] Micrographs were recorded at 80 kV, at suitable magnifications on a JEM-1200EX electron microscope (JEOL, Japan).

[5] = tested on: anti-β2GPI auto-antibodies from antiphospholipid syndrome patients; experiment: Interference with binding of anti-β2GPI autoantibodies to immobilized β2GPI; parameters: species or system human; settings: concentration series of β2GPI in solution
Description: β2GPI by recombinant β2GPI and not by plasma derived β2GPI When plasma derived β2GPI is coated onto hydrophilic ELISA plates, anti-β2GPI auto-antibodies isolated from plasma of antiphospholipid syndrome autoimmune patients can bind^18. To study the influence of coincubations of the coated β2GPI with the antibodies together with plasma β2GPI or recombinant β2GPI, concentration series of β2GPI were added to the patient antibodies. Subsequently, binding of the antibodies to coated β2GPI was determined.

[6] = target: T4, tPA; experiment: ELISA binding of β2GPI to immobilized tPA; settings: tPA immobilized
Description: as §1

T4 sequence (P00750 36-562): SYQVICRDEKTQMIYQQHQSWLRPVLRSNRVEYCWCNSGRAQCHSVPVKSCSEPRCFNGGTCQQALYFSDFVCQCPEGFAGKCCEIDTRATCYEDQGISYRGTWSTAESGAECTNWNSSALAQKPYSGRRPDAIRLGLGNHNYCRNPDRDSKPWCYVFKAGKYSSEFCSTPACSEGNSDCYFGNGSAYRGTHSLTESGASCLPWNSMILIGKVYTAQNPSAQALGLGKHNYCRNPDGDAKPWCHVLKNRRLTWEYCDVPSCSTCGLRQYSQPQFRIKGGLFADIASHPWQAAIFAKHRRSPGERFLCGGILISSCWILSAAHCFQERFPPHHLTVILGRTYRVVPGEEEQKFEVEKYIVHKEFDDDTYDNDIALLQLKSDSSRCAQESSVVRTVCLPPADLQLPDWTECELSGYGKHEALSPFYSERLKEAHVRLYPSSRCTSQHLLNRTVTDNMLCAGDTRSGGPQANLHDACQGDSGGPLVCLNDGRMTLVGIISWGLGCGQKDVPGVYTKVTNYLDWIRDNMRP
T1 sequence (P02769 25-607): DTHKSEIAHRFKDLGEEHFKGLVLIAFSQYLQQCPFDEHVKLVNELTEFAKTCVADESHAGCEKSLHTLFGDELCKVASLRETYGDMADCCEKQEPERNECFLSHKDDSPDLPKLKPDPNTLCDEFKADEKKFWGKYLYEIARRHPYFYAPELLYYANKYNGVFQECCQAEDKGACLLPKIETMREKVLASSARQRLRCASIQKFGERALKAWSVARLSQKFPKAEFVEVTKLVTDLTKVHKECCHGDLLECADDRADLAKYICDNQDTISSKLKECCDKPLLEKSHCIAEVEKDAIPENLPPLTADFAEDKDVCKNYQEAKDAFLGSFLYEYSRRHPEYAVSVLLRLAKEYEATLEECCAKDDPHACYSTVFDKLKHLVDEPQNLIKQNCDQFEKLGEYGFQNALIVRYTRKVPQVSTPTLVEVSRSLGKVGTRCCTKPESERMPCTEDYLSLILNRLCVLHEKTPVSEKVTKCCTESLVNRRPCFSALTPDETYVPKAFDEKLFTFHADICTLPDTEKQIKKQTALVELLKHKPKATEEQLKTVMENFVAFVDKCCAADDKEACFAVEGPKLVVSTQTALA
T2 sequence (P69905 2-142 limits assumed): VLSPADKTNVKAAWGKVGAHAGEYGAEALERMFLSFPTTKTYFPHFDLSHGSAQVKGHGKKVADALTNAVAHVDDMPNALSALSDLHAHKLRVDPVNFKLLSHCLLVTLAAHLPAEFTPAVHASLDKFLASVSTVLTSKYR
T2 sequence (P68871 2-147 limits assumed): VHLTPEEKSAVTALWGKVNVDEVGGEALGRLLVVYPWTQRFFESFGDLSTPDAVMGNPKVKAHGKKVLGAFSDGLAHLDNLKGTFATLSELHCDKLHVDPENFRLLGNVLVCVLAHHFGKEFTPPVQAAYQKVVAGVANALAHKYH

Molecule: BiP: recombinant human BiP with carboxy-terminal linker, FLAG-tag and His-tag, expressed in HEK 293E cells
BiP binding to BSA-AGE and native BSA [1]: binds to glycated albumin (BSA-AGE) and not to native BSA | BiP binding to Hb-AGE and native haemoglobin [2]: binds to glycated haemoglobin (Hb-AGE) and to a lesser extent to coated native haemoglobin

kD of binding to factor XII [3]: 0.9 µg/mL | kD of binding to tPA [6]: 2.3 µg/mL
B1: Recombinant β2GPI: recombinant human β2-glycoprotein I made using insect cells (protein, UniProt P02749 20-345, looked up)
Beta-2-glycoprotein 1: GRTCPKPDDLPFSTVVPLKTFYEPGEEITYSCKPGYVSRGGMRKFICPLTGLWPINTLKCTPRVCPFAGILENGAVRYTTFEYPNTISFSCNTGFYLNGADSAKCTEEGKWSPELPVCAPIICPPPSIPTFATLRVYKPSAGNNSLYRDTAVFECLPQHAMFGNDTITCTTHGNWTKLPECREVKCPFPSRPDNGFVNYPAKPTLYYKDKATFGCHDGYSLDGPEEIECTKLGNWSAMPSCKASCKVPVKKATVVYQGERVKIQEKFKNGMLHGDKVSFFCKNKEKKCSYTEDAQCIDGTIEVPKCFKEHSSLAFWKTDASDVKPC
modifications: recombinant, insect cells
stimulation of tPA-mediated conversion of Plg to plasmin [4]: stimulate tPA-mediated conversion of Plg to plasmin | inhibition of binding of anti-β2GPI auto-antibodies to immobilized β2GPI [5]: efficiently inhibits binding of anti-β2GPI auto-antibodies to immobilized β2GPI
